Source: patent US20210347908A1 (ELPISCIENCE SUZHOU BIOPHARMA, published 2021)

What was measured:
[1] = molecular target: T1, full length human SIRPα v1 stably expressed on CHOK1 cells (human, UniProt P78324 31-504); experiment: FACS on CHOK1-human SIRPα v1-1B4 cells
T1 construct: whole, on cells; also called CHOK1-human SIRPα v1-1B4 cells; CHOK1-human SIRPα v1
Protocol: Species cross reactivity of the purified hybridoma antibodies against human, cyno and mouse SIRPα was determined by FACS assay using CHOK1-human SIRPα v1-1B4 cells, CHOK1-cyno SIRPα-2A2 cells, and CHOK1-C57BL/6 mouse SIRPα-2.22 cells, which stably expressing SIRPα protein. Briefly the antibodies were incubated with 2×10⁵ target cells at 4° C. for 1 hour. After washing, fluorescence labeled anti-mouse or anti-human IgG 2nd antibody (Life Technologies) was added and incubated at 4° C. for 1 hour. Geometric median fluorescence intensity was detected and EC₅₀ was calculated. In particular, it is noted, in contrast to the other antibodies tested in the same experiment, 060 cannot bind with cyno SIRPα and 035 has cross reactivity against C57BL/6 mouse SIRPα.
(§1) hu035.01, the first version of humanized 035, was characterized by FACS assay using CHOK1-human SIRPα v1-1B4 cells, ELISA assay using Fc tagged human SIRPα v2 ECD recombinant protein and SPR analysis using the antigen of 6×His tagged human SIRPα v2 ECD recombinant protein (refer to methods described in Example 3.4, Example 3.3 and Example 4.3). […] In particular, hu035.01 cannot be detected to bind with C57BL/6 mouse SIRPα ECD in ELISA assay possibly due to reduced binding activity (FIG. 5B).

[2] = molecular target: 6×His tagged human SIRPα v2 ECD recombinant protein (human); experiment: SPR (Biacore), antibody captured, 6×His tagged human SIRPα v2 ECD as analyte
Protocol: Anti-SIRPα chimeric antibodies were characterized for binding affinity against human SIRPα v1, human SIRPα v2 and C57BL/6 mouse SIRPα using Biacore (GE). Briefly the antibodies to be tested were captured to CM5 chip (GE) using Human Antibody Capture Kit (GE). The antigens of 6×His tagged human SIRPα v1, human SIRPα v2 and C57BL/6 mouse SIRPα ECD recombinant proteins were serially diluted for multiple doses and injected at 30 μl/min for 180 s. Buffer flow was maintained for dissociation of 400 s. 3 M MgCl₂ was used for chip regeneration. The association and dissociation curves were fit with 1:1 binding model, and the Ka/Kd/KD values for each antibody were calculated.
as §1

Sequence of 6×His tagged human SIRPα v2 ECD recombinant protein (human) (chain, as listed by the source): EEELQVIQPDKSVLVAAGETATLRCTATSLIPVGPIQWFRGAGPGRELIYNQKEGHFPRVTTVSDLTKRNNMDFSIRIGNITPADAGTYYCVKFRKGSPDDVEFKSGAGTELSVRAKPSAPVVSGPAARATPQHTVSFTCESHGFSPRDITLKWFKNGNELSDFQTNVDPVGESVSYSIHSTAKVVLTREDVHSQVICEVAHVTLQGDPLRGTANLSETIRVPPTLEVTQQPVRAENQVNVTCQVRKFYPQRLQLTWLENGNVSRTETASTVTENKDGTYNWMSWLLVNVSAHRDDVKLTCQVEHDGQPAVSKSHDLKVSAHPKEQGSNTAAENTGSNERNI
T1 sequence (P78324 31-504): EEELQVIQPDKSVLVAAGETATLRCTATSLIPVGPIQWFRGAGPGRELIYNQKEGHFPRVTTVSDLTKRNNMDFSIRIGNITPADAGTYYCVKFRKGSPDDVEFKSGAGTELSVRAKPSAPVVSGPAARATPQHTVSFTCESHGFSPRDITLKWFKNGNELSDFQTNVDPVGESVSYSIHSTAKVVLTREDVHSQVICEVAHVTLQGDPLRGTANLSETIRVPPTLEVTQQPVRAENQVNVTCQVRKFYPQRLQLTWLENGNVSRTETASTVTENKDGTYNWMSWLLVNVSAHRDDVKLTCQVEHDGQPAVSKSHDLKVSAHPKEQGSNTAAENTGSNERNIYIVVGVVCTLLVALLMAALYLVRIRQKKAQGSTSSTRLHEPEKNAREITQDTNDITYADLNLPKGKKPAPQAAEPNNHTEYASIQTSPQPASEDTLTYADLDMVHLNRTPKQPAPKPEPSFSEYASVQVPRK

EC50 (read off the curve) [1]: ~0.2 µg/mL | koff [2]: 5.73e-05 s⁻¹ | kon [2]: 93500 M⁻¹ s⁻¹
B1: chimeric antibody 035c (antibody, V domains shown)
VH: QIQLVQSGPELRKPGETVKISCKASGYSFTNYAMNWVKQAPGKVLKWMGFINTYTGEPTYADDFKGRFAFSLETSASTAYLQINNLKNEDTATYFCTRTRGYYDFDGGAFDYWGQGTSLTVSS
VL: DIVMTQSQKFMSTSIGDRVSVTCKASQNVGTHLAWYQQKPGQSPKALIFSASYRYIGVPDRFTGSGSGTDFTLTITNVQSEDLAEYFCQQYNTYPLTFGAGTKLELK
